pEC50: −log10 of the molar value.
Assays:
aBeta [1] = target: aBeta (UniProt P05067); assay: ELISA; commercial
aBeta [2] = target: aBeta (UniProt P05067); assay: ELISA

| Substance | pEC50 (aBeta [1]) | pEC50 (aBeta [2]) |
| --- | --- | --- |
| Lecanemab (commercial) | 9.94 | – |
| Lecanemab (unshuttled) | – | 9.98 |

From patent US20260158147A1
